For this test, the target named is NGAL抗原 (中性粒细胞明胶酶相关载脂蛋白, Neutrophil gelatinase-associated lipocalin) (UniProt P80188 21-198). Put plainly: BLI, antibody captured on AMC sensor, NGAL in solution.
Sequence of NGAL抗原 (中性粒细胞明胶酶相关载脂蛋白, Neutrophil gelatinase-associated lipocalin) (P80188 21-198 limits assumed): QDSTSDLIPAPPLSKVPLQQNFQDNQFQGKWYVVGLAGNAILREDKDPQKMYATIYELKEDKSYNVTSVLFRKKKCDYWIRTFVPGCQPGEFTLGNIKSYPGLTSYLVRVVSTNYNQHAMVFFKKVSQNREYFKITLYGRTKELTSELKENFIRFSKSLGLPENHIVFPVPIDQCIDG

B1: 实施例1的抗NGAL单克隆抗体(WT) (antibody, V domains shown)
VH: QIQLKESGPGLVQPSETLSLTCTVSGASVTSYSISWVRQPSGKGPEWMGRMYYNGDTLYNSVIKSRLSISRDTSKNQVFLKMNSLQTDDTGTYYCARDPILPPYFDYWGQGVMVTVSS
VL: DVQMTQSPSYLAASPGESVSISCKFSKSLSNYVAWYQQKPGEAYKLLTHSASTVQSGIPSRISGSGSGTDFTLTIRSLEPEEFGLYYCQQHYENPYTFGAGTKLELKR
One may read the Kd as a measure of binding affinity in units of concentration. A high value points to lower affinity. As a reminder, the koff is the first-order rate constant of dissociation. A higher koff goes with fast dissociation. The kon is the rate constant with which the complex forms. A higher kon goes with faster complex formation. In turn, B1 displayed a Kd of 14.8 nM, a koff of 0.000313 s⁻¹ and a kon of 21200 M⁻¹ s⁻¹.

The values above are taken from patent CN114075280A (DONGGUAN PENGZHI BIOTECHNOLOGY CO LTD, dated 2022).
